Source: the RNAGym collection of RNA variant scans (doi:10.1021/acssynbio.7b00057)

B1: Pistol ribozyme (parent)
chain: GGGUCGUUGUUCCAUAAUCGCGUGGAUAUGGCACGCAAGUUUCUACCGGGCACCGUAAAUGUCCGACUGGAGCCGUUCGGGCGGCUAUAAACAGACCUCAGGCCCGAAGCGUGGCGGCACCUGCCGCCGGUGGUAAAAAAGAUCGGAAGAGCACACGUCU

Variants of: B1
Experiment: aptazyme ON/OFF ratio, guanine; higher = stronger switching; co-transcriptional cleavage with and without guanine

Variant | aptazyme ON/OFF ratio
GGGUCGCCCAGUCAUAAUCGCGUGGAUAUGGCACGCAAGUUUCUACCGGGCACCGUAAAUGUCCGACUGGAGCCGUUCGGGCGGCUAUAAACAGACCUCAGGCCCGAAGCGUGGCGGCACCUGCCGCCGGUGGUAAAAAAGAUCGGAAGAGCACACGUCU [U7C U8C G9C U10A U11G C12U] | 1.05
GGGUCGCCCAGGCAUAAUCGCGUGGAUAUGGCACGCAAGUUUCUACCGGGCACCGUAAAUGUCCGACUGGAGCCGUUCGGGCGGCUAUAAACAGACCUCAGGCCCGAAGCGUGGCGGCACCUGCCGCCGGUGGUAAAAAAGAUCGGAAGAGCACACGUCU [U7C U8C G9C U10A U11G C12G] | 1.14
GGGUCGCCCAGACAUAAUCGCGUGGAUAUGGCACGCAAGUUUCUACCGGGCACCGUAAAUGUCCGACUGGAGCCGUUCGGGCGGCUAUAAACAGACCUCAGGCCCGAAGCGUGGCGGCACCUGCCGCCGGUGGUAAAAAAGAUCGGAAGAGCACACGUCU [U7C U8C G9C U10A U11G C12A] | 1.16
GGGUCGCCCCUCCAUAAUCGCGUGGAUAUGGCACGCAAGUUUCUACCGGGCACCGUAAAUGUCCGACUGGAGCCGUUCGGGCGGCUAUAAACAGACCUCAGGCCCGAAGCGUGGCGGCACCUGCCGCCGGUGGUAAAAAAGAUCGGAAGAGCACACGUCU [U7C U8C G9C U10C] | 3.53
GGGUCGCCCCUGAAUAAUCGCGUGGAUAUGGCACGCAAGUUUCUACCGGGCACCGUAAAUGUCCGACUGGAGCCGUUCGGGCGGCUAUAAACAGACCUCAGGCCCGAAGCGUGGCGGCACCUGCCGCCGGUGGUAAAAAAGAUCGGAAGAGCACACGUCU [U7C U8C G9C U10C C12G C13A] | 1.16
GGGUCGCCCCUGGAUAAUCGCGUGGAUAUGGCACGCAAGUUUCUACCGGGCACCGUAAAUGUCCGACUGGAGCCGUUCGGGCGGCUAUAAACAGACCUCAGGCCCGAAGCGUGGCGGCACCUGCCGCCGGUGGUAAAAAAGAUCGGAAGAGCACACGUCU [U7C U8C G9C U10C C12G C13G] | 1.04
GGGUCGCCCCUGUAUAAUCGCGUGGAUAUGGCACGCAAGUUUCUACCGGGCACCGUAAAUGUCCGACUGGAGCCGUUCGGGCGGCUAUAAACAGACCUCAGGCCCGAAGCGUGGCGGCACCUGCCGCCGGUGGUAAAAAAGAUCGGAAGAGCACACGUCU [U7C U8C G9C U10C C12G C13U] | 1.04
GGGUCGCCCCUUAAUAAUCGCGUGGAUAUGGCACGCAAGUUUCUACCGGGCACCGUAAAUGUCCGACUGGAGCCGUUCGGGCGGCUAUAAACAGACCUCAGGCCCGAAGCGUGGCGGCACCUGCCGCCGGUGGUAAAAAAGAUCGGAAGAGCACACGUCU [U7C U8C G9C U10C C12U C13A] | 1.1
GGGUCGCCCAGUAAUAAUCGCGUGGAUAUGGCACGCAAGUUUCUACCGGGCACCGUAAAUGUCCGACUGGAGCCGUUCGGGCGGCUAUAAACAGACCUCAGGCCCGAAGCGUGGCGGCACCUGCCGCCGGUGGUAAAAAAGAUCGGAAGAGCACACGUCU [U7C U8C G9C U10A U11G C12U C13A] | 1.15
GGGUCGCCCAGUUAUAAUCGCGUGGAUAUGGCACGCAAGUUUCUACCGGGCACCGUAAAUGUCCGACUGGAGCCGUUCGGGCGGCUAUAAACAGACCUCAGGCCCGAAGCGUGGCGGCACCUGCCGCCGGUGGUAAAAAAGAUCGGAAGAGCACACGUCU [U7C U8C G9C U10A U11G C12U C13U] | 1.1
GGGUCGCCCAGUGAUAAUCGCGUGGAUAUGGCACGCAAGUUUCUACCGGGCACCGUAAAUGUCCGACUGGAGCCGUUCGGGCGGCUAUAAACAGACCUCAGGCCCGAAGCGUGGCGGCACCUGCCGCCGGUGGUAAAAAAGAUCGGAAGAGCACACGUCU [U7C U8C G9C U10A U11G C12U C13G] | 1.08
GGGUCGCCCAGCCAUAAUCGCGUGGAUAUGGCACGCAAGUUUCUACCGGGCACCGUAAAUGUCCGACUGGAGCCGUUCGGGCGGCUAUAAACAGACCUCAGGCCCGAAGCGUGGCGGCACCUGCCGCCGGUGGUAAAAAAGAUCGGAAGAGCACACGUCU [U7C U8C G9C U10A U11G] | 1.32
GGGUCGCCCAGGAAUAAUCGCGUGGAUAUGGCACGCAAGUUUCUACCGGGCACCGUAAAUGUCCGACUGGAGCCGUUCGGGCGGCUAUAAACAGACCUCAGGCCCGAAGCGUGGCGGCACCUGCCGCCGGUGGUAAAAAAGAUCGGAAGAGCACACGUCU [U7C U8C G9C U10A U11G C12G C13A] | 1.15
GGGUCGCCCAGGUAUAAUCGCGUGGAUAUGGCACGCAAGUUUCUACCGGGCACCGUAAAUGUCCGACUGGAGCCGUUCGGGCGGCUAUAAACAGACCUCAGGCCCGAAGCGUGGCGGCACCUGCCGCCGGUGGUAAAAAAGAUCGGAAGAGCACACGUCU [U7C U8C G9C U10A U11G C12G C13U] | 1.1
GGGUCGCCCAGGGAUAAUCGCGUGGAUAUGGCACGCAAGUUUCUACCGGGCACCGUAAAUGUCCGACUGGAGCCGUUCGGGCGGCUAUAAACAGACCUCAGGCCCGAAGCGUGGCGGCACCUGCCGCCGGUGGUAAAAAAGAUCGGAAGAGCACACGUCU [U7C U8C G9C U10A U11G C12G C13G] | 1.12
GGGUCGCCCAGCUAUAAUCGCGUGGAUAUGGCACGCAAGUUUCUACCGGGCACCGUAAAUGUCCGACUGGAGCCGUUCGGGCGGCUAUAAACAGACCUCAGGCCCGAAGCGUGGCGGCACCUGCCGCCGGUGGUAAAAAAGAUCGGAAGAGCACACGUCU [U7C U8C G9C U10A U11G C13U] | 1.17
GGGUCGCCCAGCGAUAAUCGCGUGGAUAUGGCACGCAAGUUUCUACCGGGCACCGUAAAUGUCCGACUGGAGCCGUUCGGGCGGCUAUAAACAGACCUCAGGCCCGAAGCGUGGCGGCACCUGCCGCCGGUGGUAAAAAAGAUCGGAAGAGCACACGUCU [U7C U8C G9C U10A U11G C13G] | 1.14
GGGUCGCCCAGCAAUAAUCGCGUGGAUAUGGCACGCAAGUUUCUACCGGGCACCGUAAAUGUCCGACUGGAGCCGUUCGGGCGGCUAUAAACAGACCUCAGGCCCGAAGCGUGGCGGCACCUGCCGCCGGUGGUAAAAAAGAUCGGAAGAGCACACGUCU [U7C U8C G9C U10A U11G C13A] | 1.13
